Earlier results as cited in patent US20200102349A1, “PEPTIDE REAGENTS AND METHODS FOR DETECTION AND TARGETING OF DYSPLASIA, EARLY CANCER AND CANCER” (THE REGENTS OF THE UNIVERSITY OF MICHIGAN, priority 2014, published 2020).

Test system: mouse xenograft tumor that overexpressesed EGFR
Settings: whole body fluorescence imaging

B1: Human recombinant EGF: Human recombinant EGF labeled with IRDye 800 CW (NHS ester) (protein, UniProt P01133 23-1207, looked up)
Pro-epidermal growth factor: PQHWSCPEGTLAGNGNSTCVGPAPFLIFSHGNSIFRIDTEGTNYEQLVVDAGVSVIMDFHYNEKRIYWVDLERQLLQRVFLNGSRQERVCNIEKNVSGMAINWINEEVIWSNQQEGIITVTDMKGNNSHILLSALKYPANVAVDPVERFIFWSSEVAGSLYRADLDGVGVKALLETSEKITAVSLDVLDKRLFWIQYNREGSNSLICSCDYDGGSVHISKHPTQHNLFAMSLFGDRIFYSTWKMKTIWIANKHTGKDMVRINLHSSFVPLGELKVVHPLAQPKAEDDTWEPEQKLCKLRKGNCSSTVCGQDLQSHLCMCAEGYALSRDRKYCEDVNECAFWNHGCTLGCKNTPGSYYCTCPVGFVLLPDGKRCHQLVSCPRNVSECSHDCVLTSEGPLCFCPEGSVLERDGKTCSGCSSPDNGGCSQLCVPLSPVSWECDCFPGYDLQLDEKSCAASGPQPFLLFANSQDIRHMHFDGTDYGTLLSQQMGMVYALDHDPVENKIYFAHTALKWIERANMDGSQRERLIEEGVDVPEGLAVDWIGRRFYWTDRGKSLIGRSDLNGKRSKIITKENISQPRGIAVHPMAKRLFWTDTGINPRIESSSLQGLGRLVIASSDLIWPSGITIDFLTDKLYWCDAKQSVIEMANLDGSKRRRLTQNDVGHPFAVAVFEDYVWFSDWAMPSVMRVNKRTGKDRVRLQGSMLKPSSLVVVHPLAKPGADPCLYQNGGCEHICKKRLGTAWCSCREGFMKASDGKTCLALDGHQLLAGGEVDLKNQVTPLDILSKTRVSEDNITESQHMLVAEIMVSDQDDCAPVGCSMYARCISEGEDATCQCLKGFAGDGKLCSDIDECEMGVPVCPPASSKCINTEGGYVCRCSEGYQGDGIHCLDIDECQLGEHSCGENASCTNTEGGYTCMCAGRLSEPGLICPDSTPPPHLREDDHHYSVRNSDSECPLSHDGYCLHDGVCMYIEALDKYACNCVVGYIGERCQYRDLKWWELRHAGHGQQQKVIVVAVCVVVLVMLLLLSLWGAHYYRTQKLLSKNPKNPYEESSRDVRSRRPADTEDGMSSCPQPWFVVIKEHQDLKNGGQPVAGEDGQAADGSMQPTSWRQEPQLCGMGTEQGCWIPVSSDKGSCPQVMERSFHMPSYGTQTLEGGVEKPHSLLSANPLWQQRALDPPHQMELTQ
modifications: Pro-epidermal growth factor IRDye 800CW label
time of peak signal after injection: 2 days
